Data taken from patent US10287317B2, “Proprotein convertase subtilisin kexin type 9 (PCSK9) allosteric binding ligands to modulate serum low density lipoprotein (LDL) levels” (SRX Cardio, LLC, priority 2013, dated 2019).
*1 amine or outer side, *2 acyl side, *3 side chain or, on linkers, in order; H or OH if unused. Where no end group is shown, it is not given here. [ ]: non-standard residue; d: D form. Asp(NHCH2Ph) = Asp side-chain benzylamide, O=C(C[C@H](N[*:1])C(=O)[*:2])NCc1ccccc1; Cys(CH2-Ph) = S-benzyl-Cys, O=C([C@H](CSCc1ccccc1)N[*:1])[*:2]; Phe(3-CH2NH2) = O=C([C@H](Cc1cccc(CN[*:3])c1)N[*:1])[*:2]; d(pS) = N[C@H](COP(=O)(O)O)C(=O)O; pS = N[C@@H](COP(=O)(O)O)C(=O)O; Trp(3-Me) = 3-methyltryptophan; βAla = NCCC(=O)O

Legend:
Assay type in all cases: cell-based
[1] = target: PCSK9-D374Y protein (Homo sapiens, UniProt Q8NBP7, D374Y); test: Cellular diI-LDL uptake in HuH7 cells with PCSK9-D374Y
Method: HuH7 cells were incubated in a 96-well plate for a total of 20 h in the absence (Cnt) or presence of 0.5 μg/ml PCSK9-D374Y protein alone (DY) or mixed with 100 uM of various SRX peptides. After 16 h, dil-LDL (5 ug/ml) was added to the incubation mixtures. After 4 h, fluorescence was measured (Ex: 520 nm/Em: 575 nm; cutoff: 550 nm). Dil-LDL uptake is calculated as RFU corrected for the number of cells.
HuH7 cells were incubated in a 96-well plate for a total of 20 h in the absence (Cnt) or presence of 0.5 μg/ml PCSK9 GOF-D374Y protein alone (DY) or mixed with increasing concentrations of various SRX peptides. After 16 h, dil-LDL (5 ug/ml) was added to the incubation mixtures. After 4 h, fluorescence was measured (Ex: 520 nm/Em: 575 nm; cutoff: 550 nm). Dil-LDL uptake is calculated as RFU corrected for the number of cells.
(§1) LDL internalization was measured by uptake of a fluorescently tagged LDL molecule (diI-LDL) in the absence of exogenous PCSK9 (Cnt), in the presence of exogenous PCSK9 (normal PCSK9=WT, D374Y mutant PCSK9=DY), or in the presence of PCSK9 and a tested peptide (indicated as SRX##, or SRX if a single peptide results is shown in a graph).
(§2) Cells, such as HepG2, HuH7, FL83B or a cell line transfected with a short-hairpin PCSK9 knockdown sequence such as HepG2/shPCSK9, HuH7/shPCSK9, FL83B/shPCSK9, were seeded at 2×10^4 cells/well in a 96-well plate and cultured at 37 degC in RPMI+10% FBS. After approximately 24 hours, the cell media was aspirated off and replaced with RPMI+3-5 mg/mL LPDS (Lipoprotein Deficient Serum, Millipore) media for further experimentation. Benjannet et al., “Effects of the prosegment and pH on the activity of PCSK9: evidence for additional processing events” J Biol Chem. 285(52): 40965-40978 (2010).
(§3) Peptide activity was assessed by culturing cells with: i) no SRX peptide/PCSK9 protein complex (control, Cnt); ii) PCSK9 protein; and iii) SRX peptide/PCSK9 complex. Various permutations of these experimental conditions were also used, including: i) the addition of wild type PCSK9 (WT); ii) a mutant PCSK9 (e.g., D374Y mutant PCSK9, DY); iii) various SRX peptides and/or PCSK9 at the same concentration and/or combinations; iv) various SRX peptides and/or PCSK9 at different concentrations and/or combinations; v) the use of different cells, as mentioned above, with or without a transfected short-hairpin sequence; vi) a pre-incubation of the PCSK9 and SRX peptide (e.g., 1, hour, 2 hours, 3 hours, 4 hours etc.); vii) various temperatures including, but not limited to, body temperature (e.g., 37° C.), supraphysiologic temperature (e.g., 39° C.); and viii) with/without agitation (e.g., shaker or gentle periodic vortexing).
(§4) Cells were cultured using one of the combinations of conditions described in the preceding paragraph for 16 hours. After 16 hours, a quantity of diI-LDL (Low density lipoprotein coupled with 1,1′-dioctadecyl-3,3,3′,3′-tetramethylindocarbocyanine perchlorate) needed to bring the media concentration to 5 ug/mL of diI-LDL was added to the culture well and cells continued to be cultured under these new conditions for 4 additional hours. At the end of the 4-hour incubation period (20 total hours of cell culture), the cellular uptake was halted with the addition of 4% formaldehyde in 10 uM Hoechst 33342 in a solvent such as deionized autoclaved water or PBS, and specimens were incubated at 20° C. for 20 minutes. Cell specimens were rinsed twice with PBS and then fluorescence measured with excitation at 360 nm and emission detected at 460 nm to measure DNA content. Cell specimens were then be incubated with a 0.1% SDS in a 0.1 N NaOH solution while being shaken for 10 minutes. Fluorescence of the diI-LDL in the specimens were quantified using excitation at 530 nm and resulting emission at 580 nm.
Fluorescence measurements of diI-LDLR were normalized to estimated cell numbers, determined from the Hoechst fluorescence. […]

[2] = target: T1, PCSK9-WT protein (Homo sapiens, UniProt Q8NBP7); test: Cellular diI-LDL uptake in HuH7 cells with PCSK9-WT; details: HuH7, 1.0 μg/ml PCSK9-WT, 100 uM peptide (FIG. 2)
T1 construct: V5
Method: HuH7 cells were incubated in a 96-well plate for a total of 20 h in the absence (Cnt) or presence of 1.0 μg/ml PCSK9-WT protein alone (WT) or mixed with 100 uM of various SRX peptides. After 16 h, dil-LDL (5 ug/ml) was added to the incubation mixtures. After 4 h, fluorescence was measured (Ex: 520 nm/Em: 575 nm; cutoff: 550 nm). Dil-LDL uptake is calculated as RFU corrected for the number of cells.
as §1, §2, §3, §4
Fluorescence measurements of diI-LDLR were normalized to estimated cell numbers, determined from the Hoechst fluorescence. Data was analyzed for the different experimental conditions and reported as percentage relative fluorescence units (RFU) of the Cnt specimen. Percent inhibition was calculated as the difference in RFU of a peptide exposed specimen to the RFU of PCSK9-no peptide, divided by the RFU difference in PCSK9-no peptide to RFU of Cnt specimen, also expressed as [(SRX:RFU)−(PCSK9-no peptide:RFU)]/[(PCSK9-no peptide:RFU)−(Cnt:RFU)]×100.

[3] = target: T1, PCSK9-WT protein; test: FACS analysis of cell surface LDLR in HuH7 cells with PCSK9-WT; details: HuH7 cells, FACS, exogenous WT PCSK9 plus peptide (FIG. 1, 100 μM)
Method: HuH7 cells were incubated for 18 h in the absence (Cnt) or presence of 0.75 μg/ml PCSK9-WT protein alone (WT) or mixed with 100 μM of various SRX peptides. The level of LDLR at the cell surface was measured by FACS using anti human LDLR Ab and a suitable secondary Ab labeled with Alexa 647. Cell surface LDLR is reported relative to Cnt. % inhibition of activity was calculated as [SRX−WT]/[Cnt−WT]×100%.
See, FIG. 1. In that experiment, the LDLR levels of a hepatocyte culture model (HuH7 cells) were measured by fluorescence activated cell sorting (FACS) in accordance with Example III. Cell surface LDLR is reported as a percentage of Basal levels of LDLR, indicated by the Cnt_Amm.Bic, Cnt_Ac.Acid, and Cnt bars in the top graph. See, FIG. 1 (top panel). LDLR levels in the presence of exogenous PCSK9 is indicated as WT_Amm.Bic, WT-Ac.Acid, and WT, and Exogenous PCSK9 in combination with a tested peptide is indicated as SRX##. The measured LDLR levels are reported as % versus basal controls (Cnt) of the respective group. […] This was further shown a percent inhibition (% inhibition was calculated as [SRX−WT]/[Cnt−WT]×100%) where positive modulation (increase) of LDLR level is reported as positive % inhibition, and negative modulation (decrease) of LDLR level is reported as negative % inhibition. See, FIG. 1 (bottom panel).
Benjannet et al., “Effects of the prosegment and pH on the activity of PCSK9: evidence for additional processing events” J Biol Chem. 285(52): 40965-40978 (2010). The cells were then washed 3× with solution A (calcium/magnesium-free Dulbecco's PBS (Invitrogen) containing 0.5% bovine serum albumin (Sigma) and 1 g/liter glucose)). The cells were then incubated for 10 min at room temperature with 1× Versene solution (Invitrogen) followed by the addition of 5 ml of solution A. The cells were then incubated for 40 min in solution A containing a human LDLR mAb-C7 (1:100; Santa Cruz Biotechnology). Following washes, the cells were then incubated for 20 min in solution A containing a secondary antibody (Alexa Fluor 647 donkey anti-mouse antibody; 1:250; Molecular Probes).
Following suspension in PBS containing 0.2% of propidium iodide, the cells were analyzed by FACS for both propidium iodide (dead cells) and LDLR in live cells with Alexa Fluor 647 using the FACS BD LSR (BD Biosciences).

[4] = HuH7, 0.5 μg/ml PCSK9-D374Y, 100 uM peptide (FIG. 3)
[5] = HuH7, 0.5 μg/ml PCSK9 GOF-D374Y, increasing concentrations of peptide (FIG. 4)

T1 sequence (Q8NBP7 153-692): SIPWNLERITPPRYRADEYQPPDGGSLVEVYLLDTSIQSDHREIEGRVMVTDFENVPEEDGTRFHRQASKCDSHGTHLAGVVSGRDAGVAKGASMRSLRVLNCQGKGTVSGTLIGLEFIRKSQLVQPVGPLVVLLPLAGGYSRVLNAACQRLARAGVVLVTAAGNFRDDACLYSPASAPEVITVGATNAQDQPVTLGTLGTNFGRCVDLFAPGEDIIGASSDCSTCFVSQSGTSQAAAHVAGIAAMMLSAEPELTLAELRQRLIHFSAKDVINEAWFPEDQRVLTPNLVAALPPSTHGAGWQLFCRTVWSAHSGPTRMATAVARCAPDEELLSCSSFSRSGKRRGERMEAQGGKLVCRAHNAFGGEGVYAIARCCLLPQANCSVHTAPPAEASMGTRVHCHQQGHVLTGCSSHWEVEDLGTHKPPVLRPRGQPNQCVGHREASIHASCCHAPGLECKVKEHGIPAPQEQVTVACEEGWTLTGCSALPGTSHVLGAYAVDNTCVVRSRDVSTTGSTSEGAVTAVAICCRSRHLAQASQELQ
PCSK9-D374Y protein, sequence (Q8NBP7 153-692 D374Y): as the sequence (Q8NBP7 153-692) above, with D222Y counted along it

Substance: LDLFFS [Compound 9]
- LDL internalization (dil-LDL % uptake vs Cnt) [1, 4]: positively modulated (increased)
- LDL internalization (dil-LDL % uptake vs Cnt) [1, 5]: positively modulated (increased)
- LDL internalization (dil-LDL % uptake vs Cnt) [2]: negatively modulated (decreased)

Substance: Phe(4-Ph)-Ala-Ser(p)-morpholine [Compound 16]
- modulation of LDLR cell surface level [3]: negatively modulate (decrease)
- LDL internalization (dil-LDL % uptake vs Cnt) [1, 4]: negatively modulated (decreased)
- LDL internalization (dil-LDL % uptake vs Cnt) [2]: negatively modulated (decreased)

Substance: Thr-Leu-Asp(NHCH2Ph)-Thr-Trp-Ser-Ser-Ser(p) (TL[Asp(NHCH2Ph)]TWSS[pS]) [Compound 4]
- LDL internalization (dil-LDL % uptake vs Cnt) [2]: negatively modulated (decreased)

Substance: Thr-Leu-Cys(CH2-Ph)-Thr-Trp(3-Me)-Ser-Ser-Ser(p) (TL[Cys(CH2-Ph)]T[Trp(3-Me)]SS[pS]) [Compound 7]
- LDL internalization (dil-LDL % uptake vs Cnt) [1, 4]: positively modulated (increased)
- LDL internalization (dil-LDL % uptake vs Cnt) [2]: negatively modulated (decreased)

Substance: Thr-Leu-Cys(CH2-Ph)-Thr-Trp-Ser-Ser-Ser(p) [Compound 3]
- modulation of LDLR cell surface level [3]: positively modulate (increase)
- LDL internalization (dil-LDL % uptake vs Cnt) [1, 4]: positively modulated (increased)
- LDL internalization (dil-LDL % uptake vs Cnt) [1, 5]: positively modulated (increased)
- LDL internalization (dil-LDL % uptake vs Cnt) [2]: positively modulated (increased)

Substance: Thr-Leu-Thr-Trp-Ser-Ser-Ser(p) (TLTWSS[pS]) [Compound 15]
- LDL internalization (dil-LDL % uptake vs Cnt) [1, 4]: negatively modulated (decreased)
- LDL internalization (dil-LDL % uptake vs Cnt) [2]: negatively modulated (decreased)

Substance: VLELYW [Compound 8]
- LDL internalization (dil-LDL % uptake vs Cnt) [2]: negatively modulated (decreased)

Substance: β-Ala-Phe(3-CH2NH2)-Val-D-Ser(p)-Phe-Trp ([βAla][Phe(3-CH2NH2)]V[d(pS)]FW) [Compound 2]
- modulation of LDLR cell surface level [3]: positively modulate (increase)
- LDL internalization (dil-LDL % uptake vs Cnt) [1, 4]: positively modulated (increased)
- LDL internalization (dil-LDL % uptake vs Cnt) [1, 5]: positively modulated (increased)
- LDL internalization (dil-LDL % uptake vs Cnt) [2]: positively modulated (increased)
